Experimental data as given in patent US12043671B2, “Antibodies targeting an amphiregulin-derived cell surface neo-epitope” (Gundersen Lutheran Medical Foundation, Inc., priority 2021, dated 2024).

Assays:
MCF-7 cells = assay: Tubulin staining (microtubule integrity); assay type: cell-based, human; settings: 48 h treatment
Procedure: FIGS. 4A-4E. In vitro 1A3-MMAE cytotoxicity in MCF-7 (FIG. 4A) and MCF-7F (FIG. 4B) cells measured by MTT assay after treatment with 1A3-MMAE, 1A3 or MMAE. FIG. 4C: Clonogenic growth of MCF-7 or MCF-7F cells after exposure to 1A3-MMAE and replating. FIG. 4D: The quantification of clonogenic growth assays in FIG. 4C. (FIG. 4E). Tubulin staining of MCF-7 cells after 48 h treatment with MMAE, 1A3, 1A3-MMAE (40× magnification).

MCF7-F xenografts = assay: Orthotopic MCF7-F endocrine-resistant xenograft in NSG mice; assay type: in vivo, mouse
From the text: (§1) In Vivo Antitumor Activity Studies: The animal experiments were approved by the Institutional Animal Care and Use Committee of University of Wisconsin La Crosse (La Crosse, Wisconsin, USA). Four-week-old female NOD.Cg-Prkdc^scid II2rg^tm1Wjl/SzJ mice (NSG; The Jackson Laboratory) were acclimated for 1 week before the experiments. For MCF7 breast cancer xenograft model, the mice were implanted subcutaneously with 0.72-mg 17β-estradiol 90-day release tablets (Innovative Research of America) 3 days prior to cell injection. […] Firefly luciferase expressing MCF7 and MCF7-F cells (2×10^6 cells in a 1:1 mixture of serum-free DMEM and Matrigel) were injected orthotopically into the fourth inguinal mammary fat pad of each mouse. Once the tumors were well established, each cell line cohort was divided into three groups (n=5). Mean tumor volume at the start of treatment was 111 mm^3 for the MCF7 cohorts and 119 mm^3 for the MCF7-F cohorts. The mice were treated by intraperitoneal injection every 4 days for a total of six doses with unconjugated or MMAE conjugated anti-cleaved-AREG 1A3 antibody (5 mg/kg), or vehicle control (PBS). Tumor volumes were calculated from caliper data by using the formula: Volume (mm^3)=(Length×Width^2)/2. Mice were imaged weekly with the in vivo FX PRO imaging system (Carestream Molecular Imaging, Woodbridge, CA, USA) after injecting luciferin (150 mg/kg body weight). Tumor volume and body weight were monitored once a week. Statistical Analysis:
(§2) To test in vivo efficacy of 1A3-MMAE, human breast cancer cell lines expressing luciferase were injected orthotopically into NSG mice (one tumor in each inguinal mammary gland). Once the average tumor size reached approximately 100-125 mm^3, mice were randomized to one of three treatment groups: PBS, 1A3 (5 mg/kg) or 1A3-MMAE (5 mg/kg). Mice received intraperitoneal injections every 4 days for six total injections and were monitored for tumor progression or regression. Similar experiments were performed with MCF7 (FIGS. 5A, 5B, and 5C, left panels) and MCF7-F (FIGS. 5A, 5B, and 5C, right panels) xenografts.

cleaved AREG = biological target: T1, cleaved AREG (Homo sapiens, UniProt P15514); assay: Immunohistochemistry on breast tumor tissue micro-array; settings: for proportion of tumors exhibiting medium/high intensity staining: 10 μg/mL
T1 construct: tissue US Biomax Inc; host or cells: breast disease spectrum tissue micro-array (formalin-fixed, paraffin-embedded)
T1 sequence (P15514 188-252): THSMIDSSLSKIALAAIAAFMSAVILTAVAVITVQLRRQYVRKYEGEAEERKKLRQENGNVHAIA
Procedure: A breast disease spectrum tissue micro-array was purchased from US Biomax Inc. (Derwood, MD, USA). The slides were deparaffinized in xylene and rehydrated by serial incubations in graded ethanol and then in water in a Histo-Tek® SL Slide Stainer (Sakura Finetek USA, Inc., Torrance, CA, USA). Antigen retrieval was performed in a steamer by boiling slides in a container of citrate buffer (pH 6.0) for 20 min, which was then removed for 15 min of cooling on the benchtop. Slides were washed in 1×Wash buffer (Dako Agilent, Santa Clara, CA, USA) and endogenous peroxidase was quenched by incubating with Dako Dual Endogenous Enzyme Block (S2003) for 10 min. Slides were washed in 1× Wash buffer, blocked (5% rabbit/10% goat serum in PBS), and immunostained with goat anti-AREG antibody (15 μg/mL; AF262, R&D Systems) or rabbit anti-cleaved AREG 1A3 antibody (10 μg/mL) overnight at 4° C. Slides were washed four times in 1× Wash buffer, followed by the incubation for 45 min at room temperature in 1:100 dilution of rabbit anti-goat immunoglobulins/HRP (Dako, P0160 or ready-to-use goat anti-rabbit HRP labeled polymer (Dako, K4003). The slides were washed twice in 1× Wash buffer and the color was developed with 3,3-diaminobenzidine tetrahydrochloride substrate chromogen system (K3468, DAKO, Santa Clara, CA, USA). Sections were washed with water and counterstained with hematoxylin, rinsed with water, dehydrated by serial ethanol washes to 100%, cleared and mounted in Permount (Thermo Fisher Scientific). The staining intensity was assessed semi-quantitatively using a four-point scale (negligible=0, low=1, medium=2, high=3) by two investigators working independently on blinded samples. Discordant scores were resolved by joint review.

MCF7 xenografts = assay: Orthotopic MCF7 breast cancer xenograft in NSG mice; assay type: in vivo, mouse
From the text: as §1, §2

cleaved-AREG peptide = biological target: T2, cleaved-AREG peptide (Homo sapiens, UniProt P15514); assay: ELISA binding of 1A3 and 1A3-VC-PAB-MMAE to cleaved-AREG peptide; settings: 0.001-1 μg/mL
T2 construct: host or cells: synthetic peptide
Procedure: Maxisorp flat bottom 96-well plates (Thermo Fisher Scientific) were coated with 5 μg/mL cleaved-AREG peptide at 4° C. overnight. After washing thrice with PBST (PBS with 0.05% Tween20) and blocking for 2 h at RT with 5% non-fat dry milk in PBST, various concentrations of 1A3 and 1A3-VC-PAB-MMAE (0.001, 0.01, 0.1, 1 μg/mL) were added to the wells and incubated for 2 h at RT. The wells were washed four times with PBST and were incubated at RT with Goat anti-rabbit IgG (H+L) Cross-adsorbed-HRP conjugate secondary Ab (ThermoFisher G-21234) for 1 h. One-Step™ Turbo™ B-ELISA Substrate Solution (Thermo Fisher Scientific) was added to the wells for color development, incubated for 15 min and the reaction was stopped by adding 2 M H2SO4.

B1: 1A3: Rabbit monoclonal IgG specific to cleaved AREG; VH SEQ ID NO: 3, VL SEQ ID NO: 4 (antibody, V domains shown)
VH: QSVKESEGRLVTPGTPLRLTCTVAGYSLSRYHMCWVRQAPGKGLEWIGMIGGSGRTDYASWAKGRFTISKTSTTVDLKITSPTTEDTATYFCSTVYTDSDGDFWGPGTLVTVSS
VL: AELDMTQTPSSKSVPVGGTVTINCQASESVYSNDRLAWFQQKPGQPPKLLIYYASTLASGVPSRFKGSGSGTQFTLTISDLECADAATYYCQSCYDMSSYGVAFGGGTELEIL
modifications: 1A3 antibody, Heavy chain; 1A3 antibody, Light chain
With B1 the “tubulin disruption (microtubule integrity)” value (MCF-7 cells) was “did not”, the “longitudinal luciferase imaging of xenografts” value (MCF7-F xenografts; 5 mg/kg) was “exhibited tumor growth” and the “tumor volume response by caliper measurements” value (MCF7-F xenografts; 5 mg/kg i.p. every 4 days, six doses) was “continued, sometimes rapid increases in tumor volume”. For the same molecule, the “cases with medium/high immunoreactivity” value (cleaved AREG; 138 breast cancer specimens) was 70%, the “proportion of tumors exhibiting medium/high intensity staining” value (cleaved AREG; ER-negative tumors (n=50)) was 70% and the “proportion of tumors exhibiting medium/high intensity staining” value (cleaved AREG; ER-positive tumors (n=88)) was 69.3%. The “longitudinal luciferase imaging of xenografts” value (MCF7 xenografts; MCF7, 5 mg/kg) was “exhibited tumor growth”, the “tumor volume response by caliper measurements” value (MCF7 xenografts; MCF7, 5 mg/kg i.p. every 4 days, six doses) was “continued, sometimes rapid increases in tumor volume” and the “binding to cleaved AREG peptide, unconjugated vs MMAE-conjugated” value (cleaved-AREG peptide) was “no substantial difference in binding”.
